Consider nine molecules from PMC10920880, “RNA compaction and iterative scanning for small RNA targets by the Hfq chaperone”.

Data set [1] has as its target T1, Hfq (Escherichia coli K12, UniProt P0A6X3 1-102). The experiment in a line: smFRET; 5 nM sRNA (N13)-Hfq; rates 0.05 s-1 (49%) and 0.01 s-1; lifetime >~112 s; smFRET: 10 mM Tris-HCl pH 7.5, 50 mM NaCl, 50 mM KCl, 4 mM Trolox, 0.01% Nikkol, 0.8% glucose, RNasin, oxygen scavenger; EMSA: 1x TNK, 5% glycerol, 15 min RT, native 8% PAGE 1x TBE 4 C. As to conditions: protein: recombinant; tags: none (untagged); chain copies: 6; label: tether 5' biotin, 3' Cy5; RNA 3' extension paired to DNA tether; 5' hairpin. (Mobility shift assays separate free from complexed probe on a gel.)

Data set [2] deals with T1, Hfq. The experiment in a line: smFRET; sRNA (N13)-Hfq; prefers S6 site; smFRET: 10 mM Tris-HCl pH 7.5, 50 mM NaCl, 50 mM KCl, 4 mM Trolox, 0.01% Nikkol, 0.8% glucose, RNasin, oxygen scavenger; EMSA: 1x TNK, 5% glycerol, 15 min RT, native 8% PAGE 1x TBE 4 C. As to conditions: protein: recombinant; tags: none (untagged); chain copies: 6; label: tether 5' biotin, 3' Cy5; RNA 3' extension paired to DNA tether; 5' hairpin.

In data set [3] the target is T1, Hfq. The experiment in a line: smFRET; sRNA (N13)-Hfq; 23% dynamic; smFRET: 10 mM Tris-HCl pH 7.5, 50 mM NaCl, 50 mM KCl, 4 mM Trolox, 0.01% Nikkol, 0.8% glucose, RNasin, oxygen scavenger; EMSA: 1x TNK, 5% glycerol, 15 min RT, native 8% PAGE 1x TBE 4 C. Conditions: protein: recombinant; tags: none (untagged); chain copies: 6; label: tether 5' biotin, 3' Cy5; RNA 3' extension paired to DNA tether; 5' hairpin.

Data set [4] has as its target T1, Hfq. The data set can be described thus: smFRET; sRNA (N13)-Hfq; smFRET: 10 mM Tris-HCl pH 7.5, 50 mM NaCl, 50 mM KCl, 4 mM Trolox, 0.01% Nikkol, 0.8% glucose, RNasin, oxygen scavenger; EMSA: 1x TNK, 5% glycerol, 15 min RT, native 8% PAGE 1x TBE 4 C. Conditions: protein: recombinant; tags: none (untagged); chain copies: 6; label: tether 5' biotin, 3' Cy5; RNA 3' extension paired to DNA tether; 5' hairpin.

For data set [5], the target named is T1, Hfq. The experiment in a line: smFRET; sRNA (N13)-Hfq; lifetime similar to (AAC)4; smFRET: 10 mM Tris-HCl pH 7.5, 50 mM NaCl, 50 mM KCl, 4 mM Trolox, 0.01% Nikkol, 0.8% glucose, RNasin, oxygen scavenger; EMSA: 1x TNK, 5% glycerol, 15 min RT, native 8% PAGE 1x TBE 4 C. As to conditions: protein: recombinant; tags: none (untagged); chain copies: 6; label: tether 5' biotin, 3' Cy5; RNA 3' extension paired to DNA tether; 5' hairpin.

In data set [6] the target is T1, Hfq. The experiment in a line: smFRET; sRNA (N13)-Hfq; 57% dynamic; smFRET: 10 mM Tris-HCl pH 7.5, 50 mM NaCl, 50 mM KCl, 4 mM Trolox, 0.01% Nikkol, 0.8% glucose, RNasin, oxygen scavenger; EMSA: 1x TNK, 5% glycerol, 15 min RT, native 8% PAGE 1x TBE 4 C. As to conditions: protein: recombinant; tags: none (untagged); chain copies: 6; label: tether 5' biotin, 3' Cy5; RNA 3' extension paired to DNA tether; 5' hairpin; spacer stem-loop.

Data set [7] concerns the target T1, Hfq. The data set can be described thus: smFRET; sRNA (N13)-Hfq; 39% dynamic; smFRET: 10 mM Tris-HCl pH 7.5, 50 mM NaCl, 50 mM KCl, 4 mM Trolox, 0.01% Nikkol, 0.8% glucose, RNasin, oxygen scavenger; EMSA: 1x TNK, 5% glycerol, 15 min RT, native 8% PAGE 1x TBE 4 C. As to conditions: protein: recombinant; tags: none (untagged); chain copies: 6; label: tether 5' biotin, 3' Cy5; RNA 3' extension paired to DNA tether; 5' hairpin.

B1: (AAC)4-N0-S6 mRNA on DNA tether (mixed)
RNA: GGACUCUAUCGAGUCCAACAACAACAACGACCUCGCGCCCAGGACGACACACUUUGGACAGGACACACAGGACACAGG
DNA: CCTGTGTCCTGTGTGTCCTGTCCAAAGTGTGTCGTCC
As for B1, the binding result with Hfq [1] was “binds”.

B2: (AAC)4-S6-N15-S4 tandem mRNA on DNA tether (mixed)
RNA: GGACUCUAUCGAGUCCAACAACAACAACCGACCUCUCUACCAUCACCACUCCUCGCGCCCAGGACGACACACUUUGGACAGGACACACAGGACACAGG
DNA: CCTGTGTCCTGTGTGTCCTGTCCAAAGTGTGTCGTCC
On to B2, for which the binding result with Hfq [2] is “binds”.

B3: (AAC)4-S6-N35-S6 tandem mRNA on DNA tether (mixed)
RNA: GGACUCUAUCGAGUCCAACAACAACAACAGACCUCUCUACCAUCACCUAAACUUUACUCUACCAUCACCAGACCUCGCGCCCAGGACGACACACUUUGGACAGGACACACAGGACACAGG
DNA: CCTGTGTCCTGTGTGTCCTGTCCAAAGTGTGTCGTCC
As to B3, in the data set with Hfq [3], the binding result is given as “binds”.

B4: (AAC)4-S4-N13-S6 tandem mRNA on DNA tether (mixed)
RNA: GGACUCUAUCGAGUCCAACAACAACAACACUCCUCUCUACCAUCACCCGACCUCGCGCCCAGGACGACACACUUUGGACAGGACACACAGGACACAGG
DNA: CCTGTGTCCTGTGTGTCCTGTCCAAAGTGTGTCGTCC
Consider B4, for which the binding result with Hfq [2] is “binds”.

B5: (AAC)4-N35-S6 mRNA on DNA tether (mixed)
RNA: GGACUCUAUCGAGUCCAACAACAACAACUCUACCAUCACCUAAACUUUACUCUACCAUCACCAGACCUCGCGCCCAGGACGACACACUUUGGACAGGACACACAGGACACAGG
DNA: CCTGTGTCCTGTGTGTCCTGTCCAAAGTGTGTCGTCC
Turning to B5, the binding result with Hfq [4] is “binds”.

B6: (AAC)6-N35-S6 mRNA on DNA tether (mixed)
RNA: GGACUCUAUCGAGUCCAACAACAACAACAACAACCCCUGCAUCACCUAAACUUUACUCUACCAUCACCAGACCUCGCGCCCAGGACGACACACUUUGGACAGGACACACAGGACACAGG
DNA: CCTGTGTCCTGTGTGTCCTGTCCAAAGTGTGTCGTCC
For the molecule B6, the binding result in the data set with Hfq [5] is given as “binds”.

B7: (AAC)4-S6-N13-S6_SL tandem mRNA on DNA tether (mixed)
RNA: GGACUCUAUCGAGUCCAACAACAACAACAGACCUCUCUACCAUCACCGCAGCAUACUGCUGCAGACCUCGCGCCCAGGACGACACACUUUGGACAGGACACACAGGACACAGG
DNA: CCTGTGTCCTGTGTGTCCTGTCCAAAGTGTGTCGTCC
With B7, the binding result in the data set with Hfq [6] was “binds”.

B8: (AAC)4-S6-N13-S6 tandem mRNA on DNA tether (mixed)
RNA: GGACUCUAUCGAGUCCAACAACAACAACAGACCUCUCUACCAUCACCAGACCUCGCGCCCAGGACGACACACUUUGGACAGGACACACAGGACACAGG
DNA: CCTGTGTCCTGTGTGTCCTGTCCAAAGTGTGTCGTCC
As to B8, the binding result with Hfq [7] was “binds”.

B9: (AAC)4-N15-S6 mRNA on DNA tether (mixed)
RNA: GGACUCUAUCGAGUCCAACAACAACAACUCUACCAUCACCUAAGACCUCGCGCCCAGGACGACACACUUUGGACAGGACACACAGGACACAGG
DNA: CCTGTGTCCTGTGTGTCCTGTCCAAAGTGTGTCGTCC
On to B9, for which the binding result with Hfq [4] is “binds”.
